# In US20250296992A1 (Genmab, published 2025):
# Legend:
# human SLITRK6 on cells [1] = target: T1, human SLITRK6 on cells (human, UniProt Q9H5Y7 27-841); assay: flow cytometry on RT4 cells, PE-conjugated anti-human Fc
# T1 construct: whole, on cells
# Experimental: (§1) Specifically, cells were incubated with 50 μL of mAbs or ADCs in series dilutions in PBS containing 1% BSA at 4° C. for 30 min. The cells were washed twice with PBS containing 1% BSA, stained with PE-conjugated anti human Fc in PBS containing 1% BSA and then incubated at 4° C. for 20 min. After that the cells were washed twice with PBS and analyzed by a flow cytometer.
# human SLITRK6 on cells [2] = target: T1, human SLITRK6 on cells; assay: flow cytometry on KYSE-30 cells, PE-conjugated anti-human Fc
# Experimental: as §1
# human SLITRK6 on cells [3] = target: T1, human SLITRK6 on cells; assay: flow cytometry on RT4 cells, PE-conjugated anti-human Fc; remark: listed apart in the source
# Experimental: (§2) The binding activity of mAbs and ADCs was evaluated by flow cytometer (Beckman, Cytoflex). Specifically, cells were incubated with 50 μL of mAbs or ADCs in series dilutions in PBS containing 1% BSA at 4° C. for 30 min. The cells were washed twice with PBS containing 1% BSA, stained with PE-conjugated anti human Fc in PBS containing 1% BSA and then incubated at 4° C. for 20 min. After that the cells were washed twice with PBS and analyzed by a flow cytometer.
# human SLITRK6 on cells [4] = target: T1, human SLITRK6 on cells; assay: flow cytometry on CHP-212 cells, PE-conjugated anti-human Fc
# Experimental: as §1
# human SLITRK6 on cells [5] = target: T1, human SLITRK6 on cells; assay: flow cytometry on SW780 cells, PE-conjugated anti-human Fc
# Experimental: as §1
# human SLITRK6 on cells [6] = target: T1, human SLITRK6 on cells; assay: as above; remark: listed apart in the source
# Experimental: as §2
# human SLITRK6 on cells [7] = target: T1, human SLITRK6 on cells; assay: flow cytometry on 293F-huSLITRK6 cells, PE-conjugated anti-human Fc
# Experimental: as §1
# rat SLITRK6 = target: T2, rat SLITRK6 (rat, UniProt D3ZP44 27-607); assay: BLI; antigen-his on anti-his tips, antibody or ADC as analyte; 1:1 fit
# T2 construct: extracellular domain; not shown: his tag
# [8] = target: T3, human SLITRK6 extracellular domain linked to his tag (human, UniProt Q9H5Y7 27-608); assay: as above
# T3 construct: extracellular domain; also called huSLITRK6; Hu SLITRK6; not shown: his tag
# [9] = target: T4, cynomolgus monkey SLITRK6 extracellular domain linked to his tag (cynomolgus monkey, UniProt G7PVK4 27-608); assay: as above
# T4 construct: extracellular domain; also called cynoSLITRK6; Cyno SLITRK6; not shown: his tag
# mouse SLITRK6 = target: T5, mouse SLITRK6 (mouse, UniProt Q8C110 23-609); assay: as above
# T5 construct: extracellular domain; also called Mu SLITRK6; not shown: his tag
# T5 sequence (Q8C110 23-609): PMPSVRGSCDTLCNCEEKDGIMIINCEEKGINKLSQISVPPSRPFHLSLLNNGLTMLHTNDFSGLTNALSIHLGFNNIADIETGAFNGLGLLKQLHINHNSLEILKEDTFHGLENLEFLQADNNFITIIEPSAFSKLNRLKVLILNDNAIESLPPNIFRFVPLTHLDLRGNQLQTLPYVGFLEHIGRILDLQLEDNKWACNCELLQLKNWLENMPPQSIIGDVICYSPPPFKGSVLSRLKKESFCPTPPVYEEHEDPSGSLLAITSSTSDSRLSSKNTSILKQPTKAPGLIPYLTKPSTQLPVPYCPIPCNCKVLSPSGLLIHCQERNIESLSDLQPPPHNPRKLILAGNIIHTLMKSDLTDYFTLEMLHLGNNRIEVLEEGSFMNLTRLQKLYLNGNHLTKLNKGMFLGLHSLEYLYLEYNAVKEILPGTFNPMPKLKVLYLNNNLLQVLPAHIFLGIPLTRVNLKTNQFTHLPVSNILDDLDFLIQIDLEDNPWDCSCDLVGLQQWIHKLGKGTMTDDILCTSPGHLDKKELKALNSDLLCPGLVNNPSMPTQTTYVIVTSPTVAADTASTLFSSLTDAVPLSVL
binder,measurement,setting,value
"AGS15E (antibody, V domains shown, drug conjugate; drug-linker and positions not given, also called ADC of Sirtratumab) VH: QVQLVESGGGVVQPGRSLRLSCAASGFTFSSYGMHWVRQAPGKGLEWVAVIWYDGSNQYYADSVKGRFTISRDNSKNTLFLQMHSLRAEDTAVYYCARGLTSGRYGMDWGQGTTVTVSS VL: DIVMTQSPLSLPVTPGEPASISCRSSQSLLLSHGFNYLDWYLQKPGQSPQLLIYLGSSRASGVPDRFSGSGSGTDFTLKISRVEAEDVGLYYCMQPLQIPWTFGQGTKVEIK",EC50 (read off the curve),human SLITRK6 on cells [1],~0.3 nM
same,EC50 (read off the curve),human SLITRK6 on cells [2],~0.5 nM
same,EC50 (read off the curve),human SLITRK6 on cells [3],~0.3 nM
same,EC50 (read off the curve),human SLITRK6 on cells [4],~0.2 nM
same,EC50 (read off the curve),human SLITRK6 on cells [5],~0.3 nM
same,EC50 (read off the curve),human SLITRK6 on cells [6],~0.2 nM
same,EC50 (read off the curve),human SLITRK6 on cells [7],~1 nM
same,Kd,rat SLITRK6,1.2 nM
same,Kd,[8],0.3 nM
same,Kd,[9],0.87 nM
same,Kd,mouse SLITRK6,1.9 nM
